Measured values reported in PMC8578620 (Nature Communications, 2021).

Molecular target: CAP256.wk34.c80 SOSIP.RnS2 Env trimer containing the native N160 glycan site (HIV-1 clade C, CAP256.wk34.c80 …, stabilised)

B1: 2G12 (antibody, V domains shown)
VH: EVQLVESGGGLVKAGGSLILSCGVSNFRISAHTMNWVRRVPGGGLEWVASISTSSTYRDYADAVKGRFTVSRDDLEDFVYLQMHKMRVEDTAIYYCARKGSDRLSDNDPFDAWGPGTVVTVSP
VL: VVMTQSPSTLSASVGDTITITCRASQSIETWLAWYQQKPGKAPKLLIYKASTLKTGVPSRFSGSGSGTEFTLTISGLQFDDFATYHCQHYAGYSATFGQGTRVEIK
Does B1 bind?
Result: binds
